# Laboratory results: patent publication US20140170137A1 (NVIP, published 2014)
# How the values were obtained:
# [1] = target: NGF (TF-1 cell proliferation assay); assay: cell-based or functional assay
# mouse NGF [2] = target: T1, mouse NGF (mouse, UniProt P01139 122-241); assay: ELISA, CHO supernatant on murine NGF
# T1 construct: also called murine NGF
# complement C1q [3] = target: T2, complement C1q (human, UniProt P02745 23-245; P02746 28-253; P02747 29-245); assay: C1q ELISA, antibody captured on mouse NGF coated plates
# T2 construct: Supplied as human serum diluted 1/100; detected with sheep anti-C1q-HRP
# T2 sequence (P02745 23-245 limits assumed, chain 1 of 3): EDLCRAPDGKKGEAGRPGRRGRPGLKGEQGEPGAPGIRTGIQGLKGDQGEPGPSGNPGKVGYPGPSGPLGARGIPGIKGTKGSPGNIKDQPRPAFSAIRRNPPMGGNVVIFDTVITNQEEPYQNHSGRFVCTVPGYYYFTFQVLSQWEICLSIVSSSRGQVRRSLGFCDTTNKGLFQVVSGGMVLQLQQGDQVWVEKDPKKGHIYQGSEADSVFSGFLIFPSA
# T2 sequence (P02746 28-253 limits assumed, chain 2 of 3): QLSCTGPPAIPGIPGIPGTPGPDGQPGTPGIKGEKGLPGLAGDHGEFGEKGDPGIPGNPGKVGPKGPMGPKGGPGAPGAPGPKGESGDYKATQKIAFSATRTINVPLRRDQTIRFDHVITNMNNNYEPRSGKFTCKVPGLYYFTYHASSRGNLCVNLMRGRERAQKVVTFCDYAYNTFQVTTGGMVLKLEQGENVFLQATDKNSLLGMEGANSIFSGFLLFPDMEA
# T2 sequence (P02747 29-245 limits assumed, chain 3 of 3): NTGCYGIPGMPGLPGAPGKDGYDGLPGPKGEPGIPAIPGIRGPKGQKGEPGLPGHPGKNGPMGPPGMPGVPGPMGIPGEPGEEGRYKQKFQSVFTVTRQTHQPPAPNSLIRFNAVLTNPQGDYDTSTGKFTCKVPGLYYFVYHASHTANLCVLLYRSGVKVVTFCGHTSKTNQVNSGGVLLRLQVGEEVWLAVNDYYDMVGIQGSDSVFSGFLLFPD
# mouse NGF [4] = target: T1, mouse NGF; assay: binding ELISA to mouse NGF, CHO supernatants
# complement C1q [5] = target: T2, complement C1q; assay: C1q ELISA, antibody captured on mouse NGF, human serum 1/100
# complement C1q [6] = target: T2, complement C1q; assay: C1q ELISA, antibody captured on NGF coated plates
# complement C1q [7] = target: T2, complement C1q; assay: C1q ELISA, antibody captured on NGF
# T1 sequence (P01139 122-241 limits assumed): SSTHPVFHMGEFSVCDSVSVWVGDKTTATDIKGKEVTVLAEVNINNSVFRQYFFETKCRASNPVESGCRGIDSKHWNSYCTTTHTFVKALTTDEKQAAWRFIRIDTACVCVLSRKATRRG
# Sequence of NGF (TF-1 cell proliferation assay) (P01138 122-241): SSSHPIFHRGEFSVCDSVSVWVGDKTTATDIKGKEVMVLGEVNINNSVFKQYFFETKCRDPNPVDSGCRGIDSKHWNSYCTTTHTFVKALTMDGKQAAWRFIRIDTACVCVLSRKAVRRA
Binder,binding result (mouse NGF [2]),binding result (complement C1q [3]),binding result (mouse NGF [4]),binding result (complement C1q [5]),other results
"caN-HCA-kLC (antibody, Caninised aD11 VH joined to canine HCA (caIgG-A) constant domain; caninised aD11 VL joined to canine kappa constant domain; also called caninised anti-NGF antibody, HCA isotype; anti-canine NGF antibody (HCA isotype)) heavy: EVQLVESGGDLVNPGGTLTLSCVVSGFSLTNNNVNWVRQALGRGLEWVGGVWAGGATDYNSALKSRLTITRDTSKSTVFLKMHSLQSEDTATYYCARDGGYSSSTLYAMDAWGQGTLVTVSSASTTAPSVFPLAPSCGSTSGSTVALACLVSGYFPEPVTVSWNSGSLTSGVHTFPSVLQSSGLHSLSSMVTVPSSRWPSETFTCNVVHPASNTKVDKPVFNECRCTDTPPCPVPEPLGGPSVLIFPPKPKDILRITRTPEVTCVVLDLGREDPEVQISWFVDGKEVHTAKTQSREQQFNGTYRVVSVLPIEHQDWLTGKEFKCRVNHIDLPSPIERTISKARGRAHKPSVYVLPPSPKELSSSDTVSITCLIKDFYPPDIDVEWQSNGQQEPERKHRMTPPQLDEDGSYFLYSKLSVDKSRWQQGDPFTCAVMHETLQNHYTDLSLSHSPGK light: DIQMTQSPASLSLSQEEKVTITCRASEDIYNALAWYQQKPGQAPKLLIYNTDTLHTGVPSRFSGSGSGTEYSLTINSLESEDVAVYFCQHYFHYPRTFGAGTKVELKRNDAQPAVYLFQPSPDQLHTGSASVVCLLNSFYPKDINVKWKVDGVIQDTGIQESVTEQDKDSTYSLSSTLTMSSTEYLSHELYSCEITHKSLPSTLIKSFQRSECQRVD",binds,no binding (tested: human serum diluted 1/100),,,"IC50, TF-1 NGF neutralisation assay [1]: 0.013 nM"
"caN-HCD-kLC (antibody, Caninised aD11 VH joined to canine HCD (caIgG-D) constant domain; canine kappa light chain; CHO supernatant; also called caninised anti-NGF antibody, HCD isotype) heavy: EVQLVESGGDLVNPGGTLTLSCVVSGFSLTNNNVNWVRQALGRGLEWVGGVWAGGATDYNSALKSRLTITRDTSKSTVFLKMHSLQSEDTATYYCARDGGYSSSTLYAMDAWGQGTLVTVSSASTTAPSVFPLAPSCGSTSGSTVALACLVSGYFPEPVTVSWNSGSLTSGVHTFPSVLQSSGLYSLSSTVTVPSSRWPSETFTCNVVHPASNTKVDKPVPKESTCKCISPCPVPESLGGPSVFIFPPKPKDILRITRTPEITCVVLDLGREDPEVQISWFVDGKEVHTAKTQPREQQFNSTYRVVSVLPIEHQDWLTGKEFKCRVNHIGLPSPIERTISKARGQAHQPSVYVLPPSPKELSSSDTVTLTCLIKDFYPPEIDVEWQSNGQPEPESKYHTTAPQLDEDGSYFLYSKLSVDKSRWQQGDTFTCAVMHEALQNHYTDLSLSHSPGK light: DIQMTQSPASLSLSQEEKVTITCRASEDIYNALAWYQQKPGQAPKLLIYNTDTLHTGVPSRFSGSGSGTEYSLTINSLESEDVAVYFCQHYFHYPRTFGAGTKVELKRNDAQPAVYLFQPSPDQLHTGSASVVCLLNSFYPKDINVKWKVDGVIQDTGIQESVTEQDKDSTYSLSSTLTMSSTEYLSHELYSCEITHKSLPSTLIKSFQRSECQRVD",binds,no binding (tested: human serum diluted 1/100),,,
"caN-HCC-kLC (antibody, Caninised aD11 VH joined to canine HCC (caIgG-C) constant domain; canine kappa light chain; CHO supernatant; also called caninised anti-NGF antibody, HCC isotype) heavy: EVQLVESGGDLVNPGGTLTLSCVVSGFSLTNNNVNWVRQALGRGLEWVGGVWAGGATDYNSALKSRLTITRDTSKSTVFLKMHSLQSEDTATYYCARDGGYSSSTLYAMDAWGQGTLVTVSSASTTAPSVFPLAPSCGSQSGSTVALACLVSGYIPEPVTVSWNSVSLTSGVHTFPSVLQSSGLYSLSSMVTVPSSRWPSETFTCNVAHPATNTKVDKPVAKECECKCNCNNCPCPGCGLLGGPSVFIFPPKPKDILVTARTPTVTCVVVDLDPENPEVQISWFVDSKQVQTANTQPREEQSNGTYRVVSVLPIGHQDWLSGKQFKCKVNNKALPSPIEEIISKTPGQAHQPNVYVLPPSRDEMSKNTVTLTCLVKDFFPPEIDVEWQSNGQQEPESKYRMTPPQLDEDGSYFLYSKLSVDKSRWQRGDTFICAVMHEALHNHYTQISLSHSPGK light: DIQMTQSPASLSLSQEEKVTITCRASEDIYNALAWYQQKPGQAPKLLIYNTDTLHTGVPSRFSGSGSGTEYSLTINSLESEDVAVYFCQHYFHYPRTFGAGTKVELKRNDAQPAVYLFQPSPDQLHTGSASVVCLLNSFYPKDINVKWKVDGVIQDTGIQESVTEQDKDSTYSLSSTLTMSSTEYLSHELYSCEITHKSLPSTLIKSFQRSECQRVD",,,binds,binds,
"caN-HCB-kLC (antibody, Caninised aD11 VH joined to canine HCB (caIgG-B) constant domain; canine kappa light chain; CHO supernatant; also called caninised anti-NGF antibody, HCB isotype) heavy: EVQLVESGGDLVNPGGTLTLSCVVSGFSLTNNNVNWVRQALGRGLEWVGGVWAGGATDYNSALKSRLTITRDTSKSTVFLKMHSLQSEDTATYYCARDGGYSSSTLYAMDAWGQGTLVTVSSASTTAPSVFPLAPSCGSTSGSTVALACLVSGYFPEPVTVSWNSGSLTSGVHTFPSVLQSSGLYSLSSMVTVPSSRWPSETFTCNVAHPASKTKVDKPVPKRENGRVPRPPDCPKCPAPEMLGGPSVFIFPPKPKDTLLIARTPEVTCVVVDLDPEDPEVQISWFVDGKQMQTAKTQPREEQFNGTYRVVSVLPIGHQDWLKGKQFTCKVNNKALPSPIERTISKARGQAHQPSVYVLPPSREELSKNTVSLTCLIKDFYPPDIDVEWQSNGQQEPESKYRTTPPQLDEDGSYFLYSKLSVDKSRWQRGDTFICAVMHEALHNHYTQESLSHSPGK light: DIQMTQSPASLSLSQEEKVTITCRASEDIYNALAWYQQKPGQAPKLLIYNTDTLHTGVPSRFSGSGSGTEYSLTINSLESEDVAVYFCQHYFHYPRTFGAGTKVELKRNDAQPAVYLFQPSPDQLHTGSASVVCLLNSFYPKDINVKWKVDGVIQDTGIQESVTEQDKDSTYSLSSTLTMSSTEYLSHELYSCEITHKSLPSTLIKSFQRSECQRVD",,,binds,binds,
"anti-NGF MAb with aglycosyl HCB heavy chain (HCB*) (antibody, also called aglycosylated HCB*; aglycosyl HCB* isotype anti-NGF antibody) heavy: EVQLVESGGDLVNPGGTLTLSCVVSGFSLTNNNVNWVRQALGRGLEWVGGVWAGGATDYNSALKSRLTITRDTSKSTVFLKMHSLQSEDTATYYCARDGGYSSSTLYAMDAWGQGTLVTVSSASTTAPSVFPLAPSCGSTSGSTVALACLVSGYFPEPVTVSWNSGSLTSGVHTFPSVLQSSGLYSLSSMVTVPSSRWPSETFTCNVAHPASKTKVDKPVPKRENGRVPRPPDCPKCPAPEMLGGPSVFIFPPKPKDTLLIARTPEVTCVVVDLDPEDPEVQISWFVDGKQMQTAKTQPREEQFAGTYRVVSVLPIGHQDWLKGKQFTCKVNNKALPSPIERTISKARGQAHQPSVYVLPPSREELSKNTVSLTCLIKDFYPPDIDVEWQSNGQQEPESKYRTTPPQLDEDGSYFLYSKLSVDKSRWQRGDTFICAVMHEALHNHYTQESLSHSPGK light: DIQMTQSPASLSLSQEEKVTITCRASEDIYNALAWYQQKPGQAPKLLIYNTDTLHTGVPSRFSGSGSGTEYSLTINSLESEDVAVYFCQHYFHYPRTFGAGTKVELKRNDAQPAVYLFQPSPDQLHTGSASVVCLLNSFYPKDINVKWKVDGVIQDTGIQESVTEQDKDSTYSLSSTLTMSSTEYLSHELYSCEITHKSLPSTLIKSFQRSECQRVD",,,binds,,binding result (complement C1q [6]): no binding (tested: human serum diluted 1/100)
anti-NGF MAb with aglycosyl HCC heavy chain (HCC*) (antibody) heavy: EVQLVESGGDLVNPGGTLTLSCVVSGFSLTNNNVNWVRQALGRGLEWVGGVWAGGATDYNSALKSRLTITRDTSKSTVFLKMHSLQSEDTATYYCARDGGYSSSTLYAMDAWGQGTLVTVSSASTTAPSVFPLAPSCGSQSGSTVALACLVSGYIPEPVTVSWNSVSLTSGVHTFPSVLQSSGLYSLSSMVTVPSSRWPSETFTCNVAHPATNTKVDKPVAKECECKCNCNNCPCPGCGLLGGPSVFIFPPKPKDILVTARTPTVTCVVVDLDPENPEVQISWFVDSKQVQTANTQPREEQSAGTYRVVSVLPIGHQDWLSGKQFKCKVNNKALPSPIEEIISKTPGQAHQPNVYVLPPSRDEMSKNTVTLTCLVKDFFPPEIDVEWQSNGQQEPESKYRMTPPQLDEDGSYFLYSKLSVDKSRWQRGDTFICAVMHEALHNHYTQISLSHSPGK light: DIQMTQSPASLSLSQEEKVTITCRASEDIYNALAWYQQKPGQAPKLLIYNTDTLHTGVPSRFSGSGSGTEYSLTINSLESEDVAVYFCQHYFHYPRTFGAGTKVELKRNDAQPAVYLFQPSPDQLHTGSASVVCLLNSFYPKDINVKWKVDGVIQDTGIQESVTEQDKDSTYSLSSTLTMSSTEYLSHELYSCEITHKSLPSTLIKSFQRSECQRVD,,,binds,,binding result (complement C1q [7]): binds
